We go through one substance from paper PMC6151440.

By pKa is commonly meant the negative logarithm of the acid dissociation constant.

Some targets named below: Asp21 (UniProt position 21, EVEPSDTIENV); Asp39 (UniProt position 39, EGIPPDQQRLI); Glu18 (UniProt position 18, ITLEVEPSDTI); Glu16 (UniProt position 16, KTITLEVEPSD); Asp58 (UniProt position 58, GRTLSDYNIQK); Glu64 (UniProt position 64, YNIQKESTLHL); Asp32 (UniProt position 32, KAKIQDKEGIP); Glu34 (UniProt position 34, KIQDKEGIPPD); Glu51 (UniProt position 51, AGKQLEDGRTL).

What all share (test): NMR
Common to all, as to conditions: folded, free wild-type ubiquitin

Where [1] appears, read: 298 K, not stated (20 mM d-Tris-HCl buffer, no added salt stated), 20 mM d-Tris-HCl, 1-1.5 mM.
Where [2] appears, read: 303 K, 100 mM KCl, cited from earlier work.

As for “Ubiquitin (wild type) (not stated (Homo sapiens inferred))”, the pKa with Asp21 (setting [1]) is on record as 2.98 ± 0.03; with Asp21 (setting [2]), 3.1; in the data set with Asp39 (setting [1]) it was 3.52 ± 0.02; with Asp39 (setting [2]), 3.6; with Glu18 (setting [1]), 4.26 ± 0.03; in the data set with Glu18 (setting [2]) it was 4.3. Besides, the pKa with Glu16 (setting [1]) is 4.07 ± 0.02; with Glu16 (setting [2]), 3.9; in the data set with Asp58 (setting [1]) it was 3.47 ± 0.02; with Asp58 (setting [2]), 3.7; in the data set with Glu64 (setting [1]) it was 4.26 ± 0.02; with Glu64 (setting [2]), 4.5. For the same substance, the pKa is 3.68 ± 0.03 with Asp32 (setting [1]); 3.8 with Asp32 (setting [2]); 4.16 ± 0.03 with Glu34 (setting [1]); 4.5 in the data set with Glu34 (setting [2]); 3.69 ± 0.02 with Glu51 (setting [1]); 3.8 with Glu51 (setting [2]).
